In patent US20250051407A1, “De novo designed sequence-specific DNA binding proteins” (University of Washington, priority 2023, published 2025):

Assays:
13 unique dsDNA targets = test: All-by-all yeast surface display screen of DBP design hits; assay type: binding
Method in brief: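 EBY100 yeast displaying designs were induced 16–24 h at 30°C, then labelled with biotinylated dsDNA either with avidity (SAPE premixed at one-quarter of target concentration) or without (target, then SAPE/FITC). Competition ran without avidity at 1 μM biotinylated duplex plus 8 μM unlabelled competitor. Flow cytometry read-out is the SAPE/FITC ratio over gated expressing cells.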

[1] = tested on: biotinylated target dsDNA with non-biotinylated competitor dsDNA; test: Yeast display competition assay with base-substituted competitor dsDNA; assay type: binding; conditions: all possible base mutations at each position of the competitor oligo
[2] = tested on: synthetic promoter containing the designed DBP binding sites controlling YFP; test: Transcriptional repression assay (NOT gate, YFP) in E. coli; assay type: cell-based, Escherichia coli; conditions: IPTG induction (1 mM), flow cytometry
Excerpt: We next tested the ability of the designed DBPs to function in cells to regulate transcription. We constructed candidate NOT gates (38) to assay transcriptional repression in Escherichia coli, where the input is a designed DBP under control of the IPTG-inducible PTac promoter and the output is yellow fluorescent protein (YFP) expression driven by a promoter incorporating each DBP's DNA binding site. […] To increase avidity and bulk, we fused the DBPs to the homodimerization domain of the TetR protein (39), using RFdiffusion (40) and ProteinMPNN sequence design to generate rigid linkers that orient the DBP domain of each dimer unit on a DNA target containing two palindromic binding sites. For DBPs 48, 69, and 57, we selected 96 TetR fusions for experimental characterization in the NOT gate circuit. Upon initial screening, we observed modest repression for several designs and selected two for further validation (one incorporating DBP48, the other DBP57) (FIG. 8). […]

B1: DBP48: designed DNA-binding protein, SEQ ID NO: 22, DNA target D (protein)
chain: MTPEEIAEAKRIGKEVKERRKELGLTQRELAEKLGVSRSTVSDIENGRRLPSEELLKKIKEILGV
B1 was tested, and the “Number of the 13 tested DNA target sequences preferentially bound” value (13 unique dsDNA targets; 1 μM dsDNA with avidity, including designed target sequence) was “less than 3”, the “Binding specificity versus design models” value (13 unique dsDNA targets; all-by-all screen with Rosetta-predicted motifs) was “bound with specificity closely consistent with the design models” and the “Binding to initial design target” value (13 unique dsDNA targets; yeast surface display, 1 μM dsDNA with avidity) was “bound weakly”. For the same molecule, the “Binding to alternate target sequence” value (13 unique dsDNA targets; yeast surface display, 1 μM dsDNA with avidity, alternate target H (DBP90), D (DBP48), C (DBP57)) was “strongly”, the “DNA binding site specificity” value [1] was “specificities consistent with the designed sidechain-base interactions” and the “Fold repression of YFP by single DBP domains and tandem linked DBP domains” value [2] was “not observed”.
